Measurements as given in patent US20030073629.
Where a chain is given by its changes, count along the chain named. Numbers in names are those of the source.

B1: Omi-deltaAVPS (C-terminal His6-tagged recombinant mature Omi with the AVPS motif deleted) (protein)
chain: PPPASPRSQYNFIADVVEKTAPAVVYIEILDRHPFLGREVPISNGSGFVVAADGLIVTNAHVVADRRRVRVRLLSGDTYEAVVTAVDPVADIATLRIQTKEPLPTLPLGRSADVRQGEFVVAMGSPFALQNTITSGIVSSAQRPARDLGLPQTNVEYIQTDAAIDFGNSGGPLVNLDGEVIGVNTMKVTAGISFAIPSDRLREFLHRGEKKNSSSGISGSQRRYIGVMMLTLSPSILAELQLREPSFPDVQHGVLIHKVILGSPAHRAGLRPGDVILAIGEQMVQNAEDVYEAVRTQSQLAVQIRRGRETLTLYVTPEVTEHHHHHH
B2: C-terminal His6-tagged recombinant wild type mature Omi (Omi lacking the first 133 residues) (protein)
chain: AVPSPPPASPRSQYNFIADVVEKTAPAVVYIEILDRHPFLGREVPISNGSGFVVAADGLIVTNAHVVADRRRVRVRLLSGDTYEAVVTAVDPVADIATLRIQTKEPLPTLPLGRSADVRQGEFVVAMGSPFALQNTITSGIVSSAQRPARDLGLPQTNVEYIQTDAAIDFGNSGGPLVNLDGEVIGVNTMKVTAGISFAIPSDRLREFLHRGEKKNSSSGISGSQRRYIGVMMLTLSPSILAELQLREPSFPDVQHGVLIHKVILGSPAHRAGLRPGDVILAIGEQMVQNAEDVYEAVRTQSQLAVQIRRGRETLTLYVTPEVTEHHHHHH
B3: Omi-S306A (C-terminal His6-tagged recombinant mature Omi, active site Ser306 to Ala) (protein)
chain: B2 chain with S173A

Target: XIAP, P98170
Sequence (P98170 whole entry): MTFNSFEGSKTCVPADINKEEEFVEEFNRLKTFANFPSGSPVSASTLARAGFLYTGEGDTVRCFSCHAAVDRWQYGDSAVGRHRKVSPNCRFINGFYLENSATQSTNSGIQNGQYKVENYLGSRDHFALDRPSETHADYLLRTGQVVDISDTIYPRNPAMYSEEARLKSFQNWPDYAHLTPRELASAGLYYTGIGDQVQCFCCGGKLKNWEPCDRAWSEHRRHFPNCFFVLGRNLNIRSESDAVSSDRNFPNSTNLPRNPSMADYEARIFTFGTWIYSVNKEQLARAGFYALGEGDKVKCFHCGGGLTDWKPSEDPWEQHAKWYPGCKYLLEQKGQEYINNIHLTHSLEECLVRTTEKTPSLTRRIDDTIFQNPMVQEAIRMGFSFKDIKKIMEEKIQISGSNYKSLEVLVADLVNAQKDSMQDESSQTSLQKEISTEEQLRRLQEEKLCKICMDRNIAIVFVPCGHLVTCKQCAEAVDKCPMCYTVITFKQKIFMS

Question: For B1, which “procaspase-3 activation in XIAP-containing S100 extracts stimulated with cytochrome c and dATP” value (from here on “procaspase-3 activation”) is on record?
Answer: deletion of this motif abolished its caspase-promoting activity

Question: Which “procaspase-3 activation” value does the source give for B2 here?
Answer: mature WT Omi or the S306A mutant were able to promote procaspase-3 activation in the XIAP-containing S100 extracts almost to the same extent as Smac

Question: For B3, which “procaspase-3 activation” value is on record?
Answer: mature WT Omi or the S306A mutant were able to promote procaspase-3 activation in the XIAP-containing S100 extracts almost to the same extent as Smac
